Consider four molecules from US20190218302A1, “ANTI-CANCER COMBINATION TREATMENT” (PROBIOCON GMBH, priority 2016, published 2019).

Experiment [1] has as its system RANK expressing PBMC of a patient suffering from AML (94% blasts). Description: Chemotherapy resistance model, PBMC of an AML patient, flow cytometry (7AAD and Annexin-V-PE). In kind it is cell-based, human. How it is done:
FIG. 1: RANKL mediates resistance of malignant cells to chemotherapeutic treatment. Blood of a patient suffering from acute myeloid leukemia (AML) containing 94% blasts (leukemic cells) was obtained at time of diagnosis prior to treatment and peripheral blood mononuclear cells (PBMC) were isolated by density gradient centrifugation. PBMC were cultured in the presence or absence of doxorubicin (dox, 1 μM) and/or soluble RANKL (sRANKL, 500 ng/ml) as indicated.
RANK expressing PBMC of a patient suffering from AML (French-American-British (FAB) classification: M4; 94% peripheral blood blasts) were subjected to a model of chemotherapyresistance (FIG. 1). To this end, patient blood was obtained at time of diagnosis prior to treatment and PBMC were isolated by density gradient centrifugation. […] Since AML cells of the FAB type M4 resemble monocyte-like cells, this experiment is in line with studies in healthy monocytes showing that sRANKL (Seshasayee et al. 2004, Jour Biol Chem, 279(29):30202-9) acts as a pro-survival factor, likely due to upregulation of anti-apoptotic BCL-2 proteins.
Background: A flow cytometer gives signals particle by particle.

Experiment [2] relates to MCF10A breast cancer cells. Description: MCF10A breast cancer cells with sRANKL, Denosumab and paclitaxel, flow cytometry with 7AAD. The format is cell-based, human. The settings on record: 48 h, paclitaxel 10 nM added after 24 h. Here is the method: FIG. 2: Blockade of RANKL by Denosumab overcomes resistance to chemotherapeutic treatment. MCF10A breast tumor cells were cultured for 48 h in the presence or absence of sRANKL (100 ng/ml) and/or Denosumab (20 μg/ml) as indicated. After the first 24 h of culture, paclitaxel (10 nM) was added where indicated. Then the percentage of living and dead cells was determined using flow cytometry with 7AAD.
To this end, it was evaluated if RANKL-induced chemoresistance could be overcome by application of a RANKL-inhibitor in the form of the approved RANKL antibody Denosumab. Therefore, MCF10A breast cancer cells were cultured for 48 h in the presence or absence of sRANKL (100 ng/ml, Immunotools) and Denosumab (20 μg/ml, Amgen) as indicated. After 24 h of culture, paclitaxel (10 nM, Taxomedac) representing a first line breast cancer therapeutic agent, was added where indicated.

For experiment [3], the system named is A2780 ovarian cancer cells. Description: Viability of tumor cells cultured with platelets and Denosumab, ATP content (CellTiter-Glo). In kind it is cell-based, human. The settings on record: platelets plus Denosumab, 96 h; doxorubicin for the last 24 h. Here is the method:
(§1) A2780 ovarian cancer cells (left) and MCF10A breast cancer cells (right) were employed as model to study the influence of RANKL and its neutralization on chemotherapy resistance. To this end, 30,000 tumor cells were cultured in the presence or absence of platelets and Denosumab for 96 h. The indicated concentrations of doxorubicin (left) or paclitaxel (right) were added for the last 24 h. Then cell viability was determined by analysis of ATP content of each sample (CellTiter-Glo assay, Promega). Values obtained with untreated tumor cells were set to 1.
(§2) To assess the role of pRANKL in the context of systemic treatment, the viability of ovarian and breast cancer cells was analyzed. Cells were incubated with human platelets in the presence or absence of Denosumab to neutralize pRANKL which mimics the situation in cancer patients. Presence of platelets enhanced the viability/cellular activity of tumor cells already without chemotherapeutic treatment, and the same was observed upon chemotherapeutic treatment.

The subject of experiment [4] is MCF10A breast cancer cells. The experiment is described as above. The format is cell-based, human. The settings on record: platelets plus Denosumab, 96 h; paclitaxel for the last 24 h. Here is the method: as §1, §2
Experiment [5] deals with SKBR3 breast cancer cell line. The settings on record: Schramek et al., Nature 2010; cited from earlier work.
The test system of a further experiment is melanoma metastasis. The settings on record: Jones et al., Nature 2006, cited from earlier work.

`COc1cccc2c1C(=O)c1c(O)c3c(c(O)c1C2=O)C[C@@](O)(C(=O)CO)C[C@@H]3O[C@H]1C[C@H](N)[C@H](O)[C@H](C)O1` [doxorubicin, reference compound]: the “percentage of early apoptotic and dead cells compared to the control group” value in experiment [1] (doxorubicin 1 μM, 48 h of treatment) is recorded as “greatly enhanced”. In experiment [1] (ex vivo cancer cell assay, doxorubicin applied), the “amount of viable AML cells” value was “reduced”.
In the case of “Denosumab: fully human IgG2 monoclonal antibody specific to RANKL (Amgen); heavy chain SEQ ID 1, light chain SEQ ID 2”, the “effects of chemotherapeutic treatment upon RANKL neutralization (chemosensitivity)” value in experiment [2] (Denosumab 20 μg/ml with sRANKL 100 ng/ml) was “restores and even increases the effects of chemotherapeutic treatment”. Further, the “protective effect of platelets on tumor cell viability” value in experiment [3] and in experiment [4] was “substantially reduced” in each case.

B1: sRANKL: recombinant human soluble RANKL, Immunotools, Germany (protein)
chain: EKAMVDGSWLDLAKRSKLEAQPFAHLTINATDIPSGSHKVSLSSWYHDRGWAKISNMTFSNGKLIVNQDGFYYLYANICFRHHETSGDLATEYLQLMVYVTKTSIKIPSSHTLMKGGSTKYWSGNSEFHFYSINVGGFFKLRSGEEISIEVSNPSLLDPDQDATYFGAFKVRDID
Turning to B1, the “effect of doxorubicin on the amount of viable AML cells in the presence of sRANKL” value in experiment [1] (ex vivo cancer cell assay, doxorubicin plus sRANKL) is listed as “neutralized”. Also, the “effect of chemotherapeutic treatment when sRANKL was added” value in experiment [1] (sRANKL 500 ng/ml added to doxorubicin 1 μM, 48 h) is listed as “markedly reduced”. Also, in experiment [2] (sRANKL 100 ng/ml), the “protection of malignant cells from the effects of chemotherapeutic treatment” value is “protects the malignant cells from the effects of chemotherapeutic treatment”. In addition, in experiment [5], the “protection from apoptosis induced by doxorubicin” value is reported as “protects the SKBR3 breast cancer cell line from apoptosis induced by doxorubicin”.

B2: osteoprotegerin: used for in vivo neutralization of RANKL in a mouse model of melanoma metastasis (protein, UniProt O00300 22-401, looked up)
Tumor necrosis factor …: ETFPPKYLHYDEETSHQLLCDKCPPGTYLKQHCTAKWKTVCAPCPDHYYTDSWHTSDECLYCSPVCKELQYVKQECNRTHNRVCECKEGRYLEIEFCLKHRSCPPGFGVVQAGTPERNTVCKRCPDGFFSNETSSKAPCRKHTNCSVFGLLLTQKGNATHDNICSGNSESTQKCGIDVTLCEEAFFRFAVPTKFTPNWLSVLVDNLPGTKVNAESVERIKRQHSSQEQTFQLLKLWKHQNKDQDIVKKIIQDIDLCENSVQRHIGHANLTFEQLRSLMESLPGKKVGAEDIEKTIKACKPSDQILKLLSLWRIKNGDQDTLKGLMHALKHSKTYHFPKTVTQSLKKTIRFLHSFTMYKLYQKLFLEMIGNQVQSVKISCL
In the case of B2, in the experiment on melanoma metastasis, the protection from paralysis result is “complete protection from paralysis”. In addition, the “tumor burden in bones” value in the experiment on melanoma metastasis (in bones, but not in other organs) was “marked reduction in tumor burden in bones”.
